From patent CN111777681A (SHANGHAI LIANGYUE BIOMEDICAL TECH CO LTD, dated 2020)

B1: 4F6-G11 (antibody, V domains shown)
VH: DVQLVESGGGLVQPGGSRKLSCGASGFTFSSFGMHWVRQAPEKGLEWVAYISSDSSTKHYADIVKGRFTVSRDNPRNTLFLQMTSLGSEDTAIYYCARLRRGGNALDYWGQGTSVTVSS
VL: DIVMTQSPSFLTVTAGEKVTMSCRSSQSLLNSGNQRNYLTWYQHKPGQSPKLLIYWASTRESGVPDRFTGSGSGTTFTLTISSVQPEDLAVFYCQNNYYFPFTFGSGTKLEIR
notes: Mouse monoclonal antibody; also called 4F6-Gl1; 重组抗体4F6-G11
B2: 3H2-C5 (antibody, V domains shown)
VH: DVQLVESGGGLLQPGGSRKLSCAASGFSFSNFGMHWFRQAPEKGLEWVAFISGGSSPIYYADTVKGRFTISRDNPTNTLFLQMTSLRSEDTAMYYCARFRRGGNAMDYWGQGTSVTVSS
VL: DIVMTQSPSSLTVTAREKVTMSCKSSQSLFNSGNQRNYLTWYQQKPGQPPKLLIYWASTRESGVPDRFTGSGSGTDFTLTIRSVQAEDLAVYYCQNSYSYPFTLGSGTKLEIK
notes: Mouse monoclonal antibody; also called 抗体3H2-C5; 重组抗体3H2-C5

Molecular target: T1, 人Claudin 18.2 (紧密连接蛋白-18.2) (human)
T1 construct: Full-length protein stably expressed on HEK293 or NIH-3T3 cells; also called 紧密连接蛋白18剪接变体2
Assay: flow cytometry on HEK293-Claudin 18.2 stable cells, recombinant antibody titrated from 600 nM in 3-fold steps

T1 sequence (chain, as listed by the source limits assumed): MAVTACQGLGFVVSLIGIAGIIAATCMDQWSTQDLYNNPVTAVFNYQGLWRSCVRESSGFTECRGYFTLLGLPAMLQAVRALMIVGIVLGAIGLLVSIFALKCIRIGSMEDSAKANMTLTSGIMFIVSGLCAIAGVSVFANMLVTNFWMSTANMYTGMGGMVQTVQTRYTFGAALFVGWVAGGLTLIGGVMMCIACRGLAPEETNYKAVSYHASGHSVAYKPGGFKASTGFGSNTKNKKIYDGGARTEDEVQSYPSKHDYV

Row | Binder | EC50
1 | B1 | 1.18 nM
2 | B2 | 1.01 nM
